Experimental data: EP1801220A2 (Monsanto Technology, LLC, dated 2007)

Experiments:
[1] = target: Cry3Bb.11032 (D165G) (Bacillus thuringiensis) (UniProt Q06117); test: cell-based or functional assay
[2] = target: the molecule itself; test: SDS-PAGE of unheated samples, Coomassie stain, self-association

Molecule	initial channel conductances when the protein is artificially incorporated into the membrane [1] [fold]	binding result [2]
Cry3Bb.11032 (D165G) (from UniProt Q06117 1-652)	16	–
Cry3Bb.60 (60 kDa trypsin-truncated Cry3Bb, first 159 residues removed) (other, Made by trypsin digestion of solubilized Cry3Bb, which cleaves after R159; The range counts on wild-type Cry3Bb; also called CryB2.60; Δ1-159) SKRSQDRIRELFSQAESHFRNSMPSFAVSKFEVLFLPTYAQAANTHLLLLKDAQVFGEEWGYSSEDVAEFYHRQLKLTQQYTDHCVNWYNVGLNGLRGSTYDAWVKFNRFRREMTLTVLDLIVLFPFYDIRLYSKGVKTELTRDIFTDPIFSLNTLQEYGPTFLSIENSIRKPHLFDYLQGIEFHTRLQPGYFGKDSFNYWSGNYVETRPSIGSSKTITSPFYGDKSTEPVQKLSFDGQKVYRTIANTDVAAWPNGKVYLGVTKVDFSQYDDQKNETSTQTYDSKRNNGHVSAQDSIDQLPPETTDEPLEKAYSHQLNYAECFLMQDRRGTIPFFTWTHRSVDFFNTIDAEKITQLPVVKAYALSSGASIIEGPGFTGGNLLFLKESSNSIAKFKVTLNSAALLQRYRVRIRYASTTNLRLFVQNSNNDFLVIYINKTMNKDDDLTYQTFDLATTNSNMGFSGDKNELIIGAESFVSNEKIYIDKIEFIPVQL	–	binds
